The test deals with YxiD^CTD (C-terminal domain of YxiD, Pro428-Pro534), Bacillus subtilis 6633 (Bacillus subtilis 6633 (Bacillus subtilis subsp. spizizenii ATCC 6633)). Description: ITC; 15 uM YxiD^CTD in the cell titrated with 150 uM YxxD in the syringe; 25°C; 20 mM HEPES pH 7.5, 150 mM NaCl; OneSite binding model. (ITC needs no label: the signal is the heat of the interaction.)

B1: YxxD immunity protein, Bacillus subtilis 6633 (natural protein)
chain: MSYNFIKSNKENDFYPVNQSEIEEVEKNLNLKLPSELVNFYLEVGYGFIKGSEFNTNRILDPYSVRDFRLRINDFEFYPDIEIYDEFENDKLIFFEGSESALMSIELNDNNKNPIYYYDIQIATSLTEFLRKIEENDQYYLDLLDDE
For orientation: Kd means the equilibrium constant for the complex coming apart. A high value points to lower affinity. What is called stoichiometry N is a count of units in the complex or per binding partner. In turn, B1 returned a Kd of 9.4 nM, a dH of -10200 cal/mol and a stoichiometry N of 0.975 sites.

For the origin of these results see PMC12700104.
